Article PMC9352680, “A comprehensive thermodynamic model for RNA binding by the Saccharomyces cerevisiae Pumilio protein PUF4”

Molecular target: T1, PUF4 RNA-binding domain (Saccharomyces cerevisiae, UniProt P25339 537-888)
T1 sequence: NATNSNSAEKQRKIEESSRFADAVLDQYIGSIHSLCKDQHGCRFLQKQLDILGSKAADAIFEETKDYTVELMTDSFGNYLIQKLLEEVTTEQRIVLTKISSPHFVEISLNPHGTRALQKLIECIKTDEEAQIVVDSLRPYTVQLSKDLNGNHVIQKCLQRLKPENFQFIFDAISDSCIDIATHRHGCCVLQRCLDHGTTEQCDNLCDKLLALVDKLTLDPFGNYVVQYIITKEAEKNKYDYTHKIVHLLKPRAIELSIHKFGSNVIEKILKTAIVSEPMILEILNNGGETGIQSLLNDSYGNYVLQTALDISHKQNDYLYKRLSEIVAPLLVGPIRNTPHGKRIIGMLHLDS
Assay: Mg; RNA-MaP; 20 mM Na-HEPES pH 7.4, 30 mM KOAc, 0.75 mM MgCl2, 0.1% Tween-20, 5% glycerol, 0.1 mg/mL BSA, 2 mM DTT; 25 C; 0.0125-409.6 nM protein
Conditions: tags: N-His6-TEV cleaved; C-SNAP kept, Cy3B-labelled; label: tethered on chip by stalled RNA polymerase

B1: Id_ii_S2_P5E.2_K5.1_C5.2_[C-2G]_[T-1C]_H5.1_A5.1_F5.1_T5.2_[A12C] (ssRNA)
RNA: UUUGAUUAAUAUGAUAUCGUUCUUUCUGCUGUAUUAUUAUCUUCUUUCUCGAUAUCAUAUUAAUCUUU
- Kd: 11.2 nM

B2: Id_ii_S2_P5E.2_K5.1_C5.2_[C-2T]_[T-1C]_H5.1_A5.1_F5.1_T5.2_[A12G] (ssRNA)
RNA: UUUGAUUAAUAUGAUAUCGUUCUUUCUUCUGUAUUAUUAUGUUCUUUCUCGAUAUCAUAUUAAUCUUU
- Kd: 3.04 nM

B3: Id_ii_S2_P5E.2_K5.1_C5.2_[C-2G]_H5.1_A5.1_F5.1_T5.2_[A12C] (ssRNA)
RNA: UUUGAUUAAUAUGAUAUCGUUCUUUCUGUUGUAUUAUUAUCUUCUUUCUCGAUAUCAUAUUAAUCUUU
- Kd: 18.8 nM

B4: Id_ii_S2_P5E.2_K5.1_C5.2_[C-2T]_[T-1G]_H5.1_A5.1_F5.1_T5.2_[T11G]_[A12C] (ssRNA)
RNA: UUUGAUUAAUAUGAUAUCGUUCUUUCUUGUGUAUUAUUAGCUUCUUUCUCGAUAUCAUAUUAAUCUUU
- Kd: 2.9 nM

B5: Id_ii_S2_P5E.2_K5.1_C5.2_[C-2G]_H5.1_A5.1_F5.1_T5.2_[T11A]_[A12T] (ssRNA)
RNA: UUUGAUUAAUAUGAUAUCGUUCUUUCUGUUGUAUUAUUAAUUUCUUUCUCGAUAUCAUAUUAAUCUUU
- Kd: 3.86 nM

B6: Id_ii_S2_P5E.2_K5.1_C5.2_[C-2T]_[T-1C]_H5.1_A5.1_F5.1_T5.2_[T11A]_[A12C] (ssRNA)
RNA: UUUGAUUAAUAUGAUAUCGUUCUUUCUUCUGUAUUAUUAACUUCUUUCUCGAUAUCAUAUUAAUCUUU
- Kd: 4.08 nM

B7: Id_ii_S2_P5E.2_K5.1_C5.2_[C-2A]_[T-1C]_H5.1_A5.1_F5.1_T5.2_[T11A]_[A12T] (ssRNA)
RNA: UUUGAUUAAUAUGAUAUCGUUCUUUCUACUGUAUUAUUAAUUUCUUUCUCGAUAUCAUAUUAAUCUUU
- Kd: 3.61 nM

B8: Id_ii_S2_P5E.2_K5.1_C5.2_[C-2G]_[T-1C]_H5.1_A5.1_F5.1_T5.2_[T11A]_[A12T] (ssRNA)
RNA: UUUGAUUAAUAUGAUAUCGUUCUUUCUGCUGUAUUAUUAAUUUCUUUCUCGAUAUCAUAUUAAUCUUU
- Kd: 3.35 nM

B9: Id_ii_S2_P5E.2_K5.1_C5.2_[C-2A]_[T-1C]_H5.1_A5.1_F5.1_T5.2_[T11A]_[A12C] (ssRNA)
RNA: UUUGAUUAAUAUGAUAUCGUUCUUUCUACUGUAUUAUUAACUUCUUUCUCGAUAUCAUAUUAAUCUUU
- Kd: 5.62 nM

B10: Id_ii_S2_P5E.2_K5.1_C5.2_[C-2T]_H5.1_A5.1_F5.1_T5.2_[T11A] (ssRNA)
RNA: UUUGAUUAAUAUGAUAUCGUUCUUUCUUUUGUAUUAUUAAAUUCUUUCUCGAUAUCAUAUUAAUCUUU
- Kd: 5.96 nM

B11: Id_ii_S2_P5E.2_K5.1_C5.2_[C-2T]_[T-1C]_H5.1_A5.1_F5.1_T5.2_[T11A]_[A12G] (ssRNA)
RNA: UUUGAUUAAUAUGAUAUCGUUCUUUCUUCUGUAUUAUUAAGUUCUUUCUCGAUAUCAUAUUAAUCUUU
- Kd: 51 nM

Binder: UCUCUUUGUAUCAGUAUCUCUU (ssRNA) [Ib_S1_P5E.1_K5.1_C5.1_H5.1_A5.1_[T6C]_F5.1_[T8G]_T5.1]
- Kd: 27.9 nM

Binder: UCUCUUUGUAUGACUAUCUCUU (ssRNA) [Ib_S1_P5E.1_K5.1_C5.1_H5.1_A5.1_[T6G]_F5.1_[T8C]_T5.1]
- Kd: 31.2 nM

Binder: UCUCUUUGUAUAAGUAUCUCUU (ssRNA) [Ic_S1_P5E.1_K5.1_C5.1_H5.1_A5.1_[T6A]_F5.1_[T8G]_T5.1]
- Kd: 54 nM

B12: Id_ii_S2_P4E.4_K4.3_C4.2_H4.3_A4.1_F4.1_T4.2_[G10C]_[T11G] (ssRNA)
RNA: UUUGAUUAAUAUGAUAUCGUUCUUUCUCUACACUAUUACGUUCUUUCUCGAUAUCAUAUUAAUCUUU
- Kd: > 2300 nM

B13: Id_ii_S2_P4E.4_K4.3_C4.2_H4.3_A4.1_F4.1_T4.2 (ssRNA)
RNA: UUUGAUUAAUAUGAUAUCGUUCUUUCUCUACACUAUUAGUUUCUUUCUCGAUAUCAUAUUAAUCUUU
- Kd: > 2300 nM

B14: Id_ii_S2_P4E.4_K4.3_C4.2_H4.3_A4.1_F4.1_T4.2_[G10T]_[T11A] (ssRNA)
RNA: UUUGAUUAAUAUGAUAUCGUUCUUUCUCUACACUAUUAUAUUCUUUCUCGAUAUCAUAUUAAUCUUU
- Kd: 459 nM

B15: Id_ii_S2_P4E.4_K4.3_C4.2_H4.3_A4.1_F4.1_T4.2_[T11C] (ssRNA)
RNA: UUUGAUUAAUAUGAUAUCGUUCUUUCUCUACACUAUUAGCUUCUUUCUCGAUAUCAUAUUAAUCUUU
- Kd: 1620 nM

B16: Id_ii_S2_P4E.4_K4.3_C4.2_H4.3_A4.1_F4.1_T4.2_[G10C]_[T11C] (ssRNA)
RNA: UUUGAUUAAUAUGAUAUCGUUCUUUCUCUACACUAUUACCUUCUUUCUCGAUAUCAUAUUAAUCUUU
- Kd: 563 nM

B17: Id_ii_S2_P4E.4_K4.3_C4.2_H4.3_A4.1_F4.1_T4.2_[G10T] (ssRNA)
RNA: UUUGAUUAAUAUGAUAUCGUUCUUUCUCUACACUAUUAUUUUCUUUCUCGAUAUCAUAUUAAUCUUU
- Kd: 528 nM

B18: Id_ii_S2_P4E.4_K4.3_C4.2_H4.3_A4.1_F4.1_T4.2_[G10A] (ssRNA)
RNA: UUUGAUUAAUAUGAUAUCGUUCUUUCUCUACACUAUUAAUUUCUUUCUCGAUAUCAUAUUAAUCUUU
- Kd: 498 nM

B19: Id_ii_S2_P4E.4_K4.3_C4.2_H4.3_A4.1_F4.1_T4.2_[G10C]_[T11A] (ssRNA)
RNA: UUUGAUUAAUAUGAUAUCGUUCUUUCUCUACACUAUUACAUUCUUUCUCGAUAUCAUAUUAAUCUUU
- Kd: 471 nM

Binder: UCUCUUUGUAAUAAUAUCUCUU (ssRNA) [Ib_S1_P5E.1_K5.1_C5.1_H5.1_A5.1_[T5A]_F5.1_[T8A]_T5.1]
- Kd: 17.8 nM
